No end group written: not given here.

The test system of test [1] is anti-ubiquitin antibodies (Mouse IgG1 monoclonal antibody; clone name FK2). In words: Complementation assay of splitUbiquitin using mRNA display (anti-ubiquitin antibody beads, qPCR). The test is classed as binding. The source says:
As described above, screening a library for a candidate molecule capable of forming a complex with a plurality of target molecules requires a system that suppresses the recovery rate of a test molecule that forms a complex with only one target molecule. […] Ubiquitin I13A variants were used in the experiment. In this Example, the ubiquitin N-terminal fragment to which a GS linker is attached at the C-terminus is referred to as splitUb(N), the ubiquitin C-terminal fragment to which a GS linker is attached at the C-terminus is referred to as splitUb(C), and the protein in which splitUb(N) and splitUb(C) are linked by a GSGS linker and to which a GS linker is attached at the C-terminus is referred to as splitUb(N-C).
To simultaneously evaluate the interactions of the ubiquitin N-terminal fragment and the C-terminal fragment when they are independent, the conditions of mixing the display molecule of splitUb(N) and the display molecule of splitUb(C) at 1: 1 were reacted in the same way.
Background: In qPCR the cycle at which signal appears reflects the starting amount.

Another test addresses T1, splitNanoluc1-8 (Oplophorus gracilirostris, UniProt Q9GV45, A31E/A60N/A81I/D135N/F58L/F95D/G42A/G62A/G78A/G94A/G98A/H120P/I103V/I117V/I134L/K70R/L54V/L73R/L99Q/M102E/N171T/P142E/Q151K/Q38E/Q45L/V71I/Y165I).
T1 construct: made in house
In words: Complementation assay of split Nanoluc using mRNA display (pull-down with biotinylated splitNanoluc1-8, qPCR). Format: binding. Conditions: for Recovered nucleic acid amount (molecules): 33 nM Display molecule + 1 μM biotinylated splitNanoluc1-8, room temperature 1 hour, streptavidin pull-down, TEV elution, qPCR; for Recovery rate (%): apparent recovery rate corrected with display efficiency; for Apparent recovery rate (%): recovered/input nucleic acid amount. As for the experimental part:
Thus, each binding ability of splitNanoluc-9 (SEQ ID NO: 66), splitNanoluc-10 (SEQ ID NO: 67), and splitNanoluc9-10 fusion peptide (SEQ ID NO: 65) to splitNanoluc1-8 (SEQ ID NO: 85) was evaluated.
Display molecules in which mRNA and a peptide are linked were prepared, and the recovery rate with biotinylated splitNanoluc1-8 was examined.

T1 sequence (Q9GV45 other isoform, or with tags, fused parts or gaps with the stated changes): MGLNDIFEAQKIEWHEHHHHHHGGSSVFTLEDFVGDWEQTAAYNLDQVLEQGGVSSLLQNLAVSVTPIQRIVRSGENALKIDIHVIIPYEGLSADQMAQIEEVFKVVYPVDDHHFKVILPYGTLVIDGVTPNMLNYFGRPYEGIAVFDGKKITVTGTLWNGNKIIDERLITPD

For “splitUb (N): mRNA Display molecule of ubiquitin (I13A) N-terminal fragment with GS linker (SEQ ID NO: 45) (MMQIFVKTLTGKTATLEVEPSDTIENVKAKIQDKEGIPGSGSGSGSKK; also: mRNA display linkage)”, in test [1] (anti-ubiquitin antibody (FK2) magnetic beads, room temperature 1 hour, qPCR), the “Recovered nucleic acid amount (molecules)” value is 1.63E+10 molecules. Moreover, in test [1] (apparent recovery rate corrected with display efficiency), the “Recovery rate (%)” value came to 1.040%. The “Apparent recovery rate (%)” value in test [1] (recovered/input nucleic acid amount) was 0.931%.

With “splitNanoluc9-10: mRNA Display molecule of Nanoluc 9th and 10th strands linked by GS linker, with TEV sequence (SEQ ID NO: 65) (MGSMLFRVTINSGGGSGGGGSGVSGWRLFKKISGSGSGSGSENLYFQGKK; also: mRNA display conjugate)”, in the test with splitNanoluc1-8, the “Recovered nucleic acid amount (molecules)” value worked out at 3.45E+09 molecules, the “Recovery rate (%)” value is 33.155% and the “Apparent recovery rate (%)” value is listed as 12.632%.

As to “splitNanoluc-10: mRNA Display molecule of Nanoluc 10th strand with GS linker and TEV sequence (SEQ ID NO: 67) (MVSGWRLFKKISGSGSGSGSENLYFQGKK; also: mRNA display conjugate)”, in the test with splitNanoluc1-8, the “Recovered nucleic acid amount (molecules)” value was determined as 5.04E+06 molecules, the “Recovery rate (%)” value is recorded as 0.016% and the “Apparent recovery rate (%)” value is listed as 0.011%.

On to “splitNanoluc-9: mRNA Display molecule of Nanoluc 9th strand with GS linker and TEV sequence (SEQ ID NO: 66) (MGSMLFRVTINSGSGSGSGSENLYFQGKK; also: mRNA display conjugate)”, for which, in the test with splitNanoluc1-8, the “Recovered nucleic acid amount (molecules)” value came out at 2.53E+06 molecules, the “Recovery rate (%)” value is reported as 0.049% and the “Apparent recovery rate (%)” value was determined as 0.008%.

The record behind these values is patent publication US20240069033A1, “METHOD FOR SCREENING FOR CANDIDATE MOLECULE CAPABLE OF FORMING COMPLEX IN CONJUNCTION WITH PLURALITY OF TARGET MOLECULES” (Chugai Seiyaku Kabushiki Kaisha, priority 2020, published 2024).
